Columns and labels:
[1] = system: HeLa Kyoto; assay: solubility in G1/S (NP-40 vs SDS abundance) (log2 ratio); higher = more soluble; details: cell cycle stage: G1/S
[2] = system: HeLa Kyoto; assay: melting temperature (median over replicates), in situ; higher = more thermally stable
[3] = system: HeLa Kyoto; assay: thermal stability score vs G1/S (z-score of summed log2 fold changes over temperatures); higher = more thermally stable than in G1/S
[4] = system: HeLa Kyoto; assay: solubility change mitosis vs G1/S (difference of NP-40 vs SDS log2 ratios) (log2 ratio difference); higher = more soluble in mitosis
[5] = cell cycle stage: early G1 (4.5 h after nocodazole release)
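Wherever melting temperature (median over replicates), in situ is given: HeLa Kyoto cells synchronized by double thymidine or nocodazole block, proteins quantified by TMT10plex mass spectrometry, three independent biological replicates.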
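Wherever solubility change mitosis vs G1/S (difference of NP-40 vs SDS log2 ratios) is given: synchronized HeLa Kyoto cells (double thymidine block for G1/S, nocodazole release for mitosis), protein amounts in NP-40 versus SDS lysates quantified by mass spectrometry, three biological replicates.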
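Wherever solubility in G1/S (NP-40 vs SDS abundance) is given: HeLa Kyoto cells arrested at G1/S by double thymidine block, proteins quantified by TMT10plex mass spectrometry in mild NP-40 versus SDS extracts, three biological replicates.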
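Wherever thermal stability score vs G1/S (z-score of summed log2 fold changes over temperatures) is given: synchronized HeLa Kyoto cells, proteins quantified by TMT10plex mass spectrometry, three biological replicates, mitosis taken 0.5 h after nocodazole release, G1/S directly after double thymidine block.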

Substance	solubility in G1/S (log2) [1]	melting temperature ([2]; cell cycle stage: G1/S)	melting temperature ([2]; cell cycle stage: mitosis)	thermal stability score [3, 5]	thermal stability score ([3]; cell cycle stage: mitosis)	solubility change mitosis (log2) [4]
MGRIFLDHIGGTRLFSCANCDTILTNRSELISTRFTGATGRAFLFNKVVNLQYSEVQDRVMLTGRHMVRDVSCKNCNSKLGWIYEFATEDSQRYKEGRVILERALVRESEGFEEHVPSDNS [YPEL5]	0.00475	50.7 °C	52.5 °C	0.121	-0.0508	-0.00616
MPTVSVKRDLLFQALGRTYTDEEFDELCFEFGLELDEITSEKEIISKEQGNVKAAGASDVVLYKIDVPANRYDLLCLEGLVRGLQVFKERIKAPVYKRVMPDGKIQKLIITEETAKIRPFAVAAVLRNIKFTKDRYDSFIELQEKLHQNICRKRALVAIGTHDLDTLSGPFTYTAKRPSDIKFKPLNKTKEYTACELMNIYKTDNHLKHYLHIIENKPLYPVIYDSNGVVLSMPPIINGDHSRITVNTRNIFIECTGTDFTKAKIVLDIIVTMFSEYCENQFTVEAAEVVFPNGKSHTFPELAYRKEMVRADLINKKVGIRETPENLAKLLTRMYLKSEVIGDGNQIEIEIPPTRADIIHACDIVEDAAIAYGYNNIQMTLPKTYTIANQFPLNKLTELLRHDMAAAGFTEALTFALCSQEDIADKLGVDISATKAVHISNPKTAEFQVARTTLLPGLLKTIAANRKMPLPLKLFEISDIVIKDSNTDVGAKNYRHLCAVYYNKNPGFEIIHGLLDRIMQLLDVPPGEDKGGYVIKASEGPAFFPGRCAEIFARGQSVGKLGVLHPDVITKFELTMPCSSLEINVGPFL [FARSB]	0.00374	50.4 °C	50.2 °C	2.32	0.692	-0.031
CARKD	0.243	54.8 °C	56.1 °C	-0.234	-1.33	-0.211
MMTSVGTNRARGNWEQPQNQNQTQHKQRPQATAEQIRLAQMISDHNDADFEEKVKQLIDITGKNQDECVIALHDCNGDVNRAINVLLEGNPDTHSWEMVGKKKGVSGQKDGGQTESNEEGKENRDRDRDYSRRRGGPPRRGRGASRGREFRGQENGLDGTKSGGPSGRGTERGRRGRGRGRGGSGRRGGRFSAQGMGTFNPADYAEPANTDDNYGNSSGNTWNNTGHFEPDDGTSAWRTATEEWGTEDWNEDLSETKIFTASNVSSVPLPAENVTITAGQRIDLAVLLGKTPSTMENDSSNLDPSQAPSLAQPLVFSNSKQTAISQPASGNTFSHHSMVSMLGKGFGDVGEAKGGSTTGSQFLEQFKTAQALAQLAAQHSQSGSTTTSSWDMGSTTQSPSLVQYDLKNPSDSAVHSPFTKRQAFTPSSTMMEVFLQEKSPAVATSTAAPPPPSSPLPSKSTSAPQMSPGSSDNQSSSPQPAQQKLKQQKKKASLTSKIPALAVEMPGSADISGLNLQFGALQFGSEPVLSDYESTPTTSASSSQAPSSLYTSTASESSSTISSNQSQESGYQSGPIQSTTYTSQNNAQGPLYEQRSTQTRRYPSSISSSPQKDLTQAKNGFSSVQATQLQTTQSVEGATGSAVKSDSPSTSSIPPLNETVSAASLLTTTNQHSSSLGGLSHSEEIPNTTTTQHSSTLSTQQNTLSSSTSSGRTSTSTLLHTSVESEANLHSSSSTFSTTSSTVSAPPPVVSVSSSLNSGSSLGLSLGSNSTVTASTRSSVATTSGKAPPNLPPGVPPLLPNPYIMAPGLLHAYPPQVYGYDDLQMLQTRFPLDYYSIPFPTPTTPLTGRDGSLASNPYSGDLTKFGRGDASSPAPATTLAQPQQNQTQTHHTTQQTFLNPALPPGYSYTSLPYYTGVPGLPSTFQYGPAVFPVAPTSSKQHGVNVSVNASATPFQQPSGYGSHGYNTGVSVTSSNTGVPDISGSVYSKTQQSFEKQGFHSGTPAASFNLPSALGSGGPINPATAAAYPPAPFMHILTPHQQPHSQILHHHLQQDGQTGSGQRSQTSSIPQKPQTNKSAYNSYSWGAN [UBAP2L]	-0.0783	55.5 °C	54.2 °C	-3.92	-3.52	0.0243
MYATDSRGHSPAFLQPQNGNSRHPSGYVPGKVVPLRPPPPPKSQASAKFTSIRREDRATFAFSPEEQQAQRESQKQKRHKNTFICFAITSFSFFIALAIILGISSKYAPDENCPDQNPRLRNWDPGQDSAKQVVIKEGDMLRLTSDATVHSIVIQDGGLLVFGDNKDGSRNITLRTHYILIQDGGALHIGAEKCRYKSKATITLYGKSDEGESMPTFGKKFIGVEAGGTLELHGARKASWTLLARTLNSSGLPFGSYTFEKDFSRGLNVRVIDQDTAKILESERFDTHEYRNESRRLQEFLRFQDPGRIVAIAVGDSAAKSLLQGTIQMIQERLGSELIQGLGYRQAWALVGVIDGGSTSCNESVRNYENHSSGGKALAQREFYTVDGQKFSVTAYSEWIEGVSLSGFRVEVVDGVKLNLLDDVSSWKPGDQIVVASTDYSMYQAEEFTLLPCSECSHFQVKVKETPQFLHMGEIIDGVDMRAEVGILTRNIVIQGEVEDSCYAENQCQFFDYDTFGGHIMIMKNFTSVHLSYVELKHMGQQQMGRYPVHFHLCGDVDYKGGYRHATFVDGLSIHHSFSRCITVHGTNGLLIKDTIGFDTLGHCFFLEDGIEQRNTLFHNLGLLTKPGTLLPTDRNNSMCTTMRDKVFGNYIPVPATDCMAVSTFWIAHPNNNLINNAAAGSQDAGIWYLFHKEPTGESSGLQLLAKPELTPLGIFYNNRVHSNFKAGLFIDKGVKTTNSSAADPREYLCLDNSARFRPHQDANPEKPRVAALIDRLIAFKNNDNGAWVRGGDIIVQNSAFADNGIGLTFASDGSFPSDEGSSQEVSESLFVGESRNYGFQGGQNKYVGTGGIDQKPRTLPRNRTFPIRGFQIYDGPIHLTRSTFKKYVPTPDRYSSAIGFLMKNSWQITPRNNISLVKFGPHVSLNVFFGKPGPWFEDCEMDGDKNSIFHDIDGSVTGYKDAYVGRMDNYLIRHPSCVNVSKWNAVICSGTYAQVYVQTWSTQNLSMTITRDEYPSNPMVLRGINQKAAFPQYQPVVMLEKGYTIHWNGPAPRTTFLYLVNFNKNDWIRVGLCYPSNTSFQVTFGYLQRQNGSLSKIEEYEPVHSLEELQRKQSERKFYFDSSTGLLFLYLKAKSHRHGHSYCSSQGCERVKIQAATDSKDISNCMAKAYPQYYRKPSVVKRMPAMLTGLCQGCGTRQVVFTSDPHKSYLPVQFQSPDKAETQRGDPSVISVNGTDFTFRSAGVLLLVVDPCSVPFRLTEKTVFPLADVSRIEEYLKTGIPPRSIVLLSTRGEIKQLNISHLLVPLGLAKPAHLYDKGSTIFLGFSGNFKPSWTKLFTSPAGQGLGVLEQFIPLQLDEYGCPRATTVRRRDLELLKQASKAH [TMEM2]	0.114	55.3 °C	55.5 °C	-1.5	-0.419	-0.018
MADTDLFMECEEEELEPWQKISDVIEDSVVEDYNSVDKTTTVSVSQQPVSAPVPIAAHASVAGHLSTSTTVSSSGAQNSDSTKKTLVTLIANNNAGNPLVQQGGQPLILTQNPAPGLGTMVTQPVLRPVQVMQNANHVTSSPVASQPIFITTQGFPVRNVRPVQNAMNQVGIVLNVQQGQTVRPITLVPAPGTQFVKPTVGVPQVFSQMTPVRPGSTMPVRPTTNTFTTVIPATLTIRSTVPQSQSQQTKSTPSTSTTPTATQPTSLGQLAVQSPGQSNQTTNPKLAPSFPSPPAVSIASFVTVKRPGVTGENSNEVAKLVNTLNTIPSLGQSPGPVVVSNNSSAHGSQRTSGPESSMKVTSSIPVFDLQDGGRKICPRCNAQFRVTEALRGHMCYCCPEMVEYQKKGKSLDSEPSVPSAAKPPSPEKTAPVASTPSSTPIPALSPPTKVPEPNENVGDAVQTKLIMLVDDFYYGRDGGKVAQLTNFPKVATSFRCPHCTKRLKNNIRFMNHMKHHVELDQQNGEVDGHTICQHCYRQFSTPFQLQCHLENVHSPYESTTKCKICEWAFESEPLFLQHMKDTHKPGEMPYVCQVCQYRSSLYSEVDVHFRMIHEDTRHLLCPYCLKVFKNGNAFQQHYMRHQKRNVYHCNKCRLQFLFAKDKIEHKLQHHKTFRKPKQLEGLKPGTKVTIRASRGQPRTVPVSSNDTPPSALQEAAPLTSSMDPLPVFLYPPVQRSIQKRAVRKMSVMGRQTCLECSFEIPDFPNHFPTYVHCSLCRYSTCCSRAYANHMINNHVPRKSPKYLALFKNSVSGIKLACTSCTFVTSVGDAMAKHLVFNPSHRSSSILPRGLTWIAHSRHGQTRDRVHDRNVKNMYPPPSFPTNKAATVKSAGATPAEPEELLTPLAPALPSPASTATPPPTPTHPQALALPPLATEGAECLNVDDQDEGSPVTQEPELASGGGGSGGVGKKEQLSVKKLRVVLFALCCNTEQAAEHFRNPQRRIRRWLRRFQASQGENLEGKYLSFEAEEKLAEWVLTQREQQLPVNEETLFQKATKIGRSLEGGFKISYEWAVRFMLRHHLTPHARRAVAHTLPKDVAENAGLFIDFVQRQIHNQDLPLSMIVAIDEISLFLDTEVLSSDDRKENALQTVGTGEPWCDVVLAILADGTVLPTLVFYRGQMDQPANMPDSILLEAKESGYSDDEIMELWSTRVWQKHTACQRSKGMLVMDCHRTHLSEEVLAMLSASSTLPAVVPAGCSSKIQPLDVCIKRTVKNFLHKKWKEQAREMADTACDSDVLLQLVLVWLGEVLGVIGDCPELVQRSFLVASVLPGPDGNINSPTRNADMQEELIASLEEQLKLSGEHSESSTPRPRSSPEETIEPESLHQLFEGESETESFYGFEEADLDLMEI [POGZ]	-0.704		49.5 °C	1.1	2.58	0.341
MTTDEGAKNNEESPTATVAEQGEDITSKKDRGVLKIVKRVGNGEETPMIGDKVYVHYKGKLSNGKKFDSSHDRNEPFVFSLGKGQVIKAWDIGVATMKKGEICHLLCKPEYAYGSAGSLPKIPSNATLFFEIELLDFKGEDLFEDGGIIRRTKRKGEGYSNPNEGATVEIHLEGRCGGRMFDCRDVAFTVGEGEDHDIPIGIDKALEKMQREEQCILYLGPRYGFGEAGKPKFGIEPNAELIYEVTLKSFEKAKESWEMDTKEKLEQAAIVKEKGTVYFKGGKYMQAVIQYGKIVSWLEMEYGLSEKESKASESFLLAAFLNLAMCYLKLREYTKAVECCDKALGLDSANEKGLYRRGEAQLLMNEFESAKGDFEKVLEVNPQNKAARLQISMCQKKAKEHNERDRRIYANMFKKFAEQDAKEEANKAMGKKTSEGVTNEKGTDSQAMEEEKPEGHV [FKBP5]	0.0823	46.7 °C	48.6 °C	2.48	4.23	-0.124
MVLADLGRKITSALRSLSNATIINEEVLNAMLKEVCTALLEADVNIKLVKQLRENVKSAIDLEEMASGLNKRKMIQHAVFKELVKLVDPGVKAWTPTKGKQNVIMFVGLQGSGKTTTCSKLAYYYQRKGWKTCLICADTFRAGAFDQLKQNATKARIPFYGSYTEMDPVIIASEGVEKFKNENFEIIIVDTSGRHKQEDSLFEEMLQVANAIQPDNIVYVMDASIGQACEAQAKAFKDKVDVASVIVTKLDGHAKGGGALSAVAATKSPIIFIGTGEHIDDFEPFKTQPFISKLLGMGDIEGLIDKVNELKLDDNEALIEKLKHGQFTLRDMYEQFQNIMKMGPFSQILGMIPGFGTDFMSKGNEQESMARLKKLMTIMDSMNDQELDSTDGAKVFSKQPGRIQRVARGSGVSTRDVQELLTQYTKFAQMVKKMGGIKGLFKGGDMSKNVSQSQMAKLNQQMAKMMDPRVLHHMGGMAGLQSMMRQFQQGAAGNMKGMMGFNNM [SRP54]	0.193	52 °C	50.4 °C	0.232	0.227	0.157
MLLTVYCVRRDLSEVTFSLQVDADFELHNFRALCELESGIPAAESQIVYAERPLTDNHRSLASYGLKDGDVVILRQKENADPRPPVQFPNLPRIDFSSIAVPGTSSPRQRQPPGTQQSHSSPGEITSSPQGLDNPALLRDMLLANPHELSLLKERNPPLAEALLSGDLEKFSRVLVEQQQDRARREQERIRLFSADPFDLEAQAKIEEDIRQQNIEENMTIAMEEAPESFGQVVMLYINCKVNGHPVKAFVDSGAQMTIMSQACAERCNIMRLVDRRWAGIAKGVGTQKIIGRVHLAQVQIEGDFLPCSFSILEEQPMDMLLGLDMLKRHQCSIDLKKNVLVIGTTGSQTTFLPEGELPECARLAYGAGREDVRPEEIADQELAEALQKSAEDAERQKP [DDI2]	0.489	52.8 °C	53 °C	-0.385	0.166	-0.11

From the supplement of paper PMC5998384
